Results: article PMC8564539
Each block holds one substance with its values, some of them ahead of it.

How the values were obtained:
Experiment in all cases: AlphaScreen or HTRF; ALPHA: FLAG-tagged domain mixed with biotin-tagged domain (cell-free translation mixtures), streptavidin donor beads, anti-DYKDDDDK antibody with protein A acceptor beads; 100 mM Tris-HCl pH 8.0, 0.01% Tween 20, 1 mg/mL BSA; 25 °C, 24 h; median of duplicate reactions
ASC_PYD-CARD (human) = ASC_PYD-CARD (human) (UniProt Q9ULZ3)
IRAK3_DD (human) = IRAK3_DD (human) (UniProt Q9Y616)
DAPK1_DD (human) = DAPK1_DD (human) (UniProt P53355)
FADD_DED-DD (human) = FADD_DED-DD (human) (UniProt Q13158)
CASP10_DED1-DED2 (human) = CASP10_DED1-DED2 (human) (UniProt Q92851)
CFLAR_DED1-DED2 (human) = CFLAR_DED1-DED2 (human) (UniProt O15519)
TRADD_DD (human) = TRADD_DD (human) (UniProt Q15628)
CASP8_DED1-DED2 (human) = CASP8_DED1-DED2 (human) (UniProt Q14790)
TNFRSF1A_DD (human) = TNFRSF1A_DD (human) (UniProt P19438)
RIPK1_DD (human) = RIPK1_DD (human) (UniProt Q13546)
CASP8_DED1 (human) = CASP8_DED1 (human) (UniProt Q14790)
CASP2_CARD (human) = CASP2_CARD (human) (UniProt P42575)
PYDC2_PYD (human) = PYDC2_PYD (human) (UniProt Q56P42)
CASP1_CARD (human) = CASP1_CARD (human) (UniProt P29466)
NLRC4_CARD (human) = NLRC4_CARD (human) (UniProt Q9NPP4)
Chain of NLRC4_CARD (human) (Q9NPP4 1-88): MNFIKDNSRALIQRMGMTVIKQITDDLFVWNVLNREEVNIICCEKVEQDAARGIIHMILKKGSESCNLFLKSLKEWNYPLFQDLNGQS

Chain of FADD_DED-DD (human) (Q13158 whole entry): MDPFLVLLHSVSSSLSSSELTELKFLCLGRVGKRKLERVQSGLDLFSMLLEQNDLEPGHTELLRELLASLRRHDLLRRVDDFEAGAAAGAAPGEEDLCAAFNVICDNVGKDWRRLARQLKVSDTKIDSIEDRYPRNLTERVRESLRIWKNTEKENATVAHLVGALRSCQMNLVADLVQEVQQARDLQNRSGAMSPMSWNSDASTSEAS
Chain of TNFRSF1A_DD (human) (P19438 356-441): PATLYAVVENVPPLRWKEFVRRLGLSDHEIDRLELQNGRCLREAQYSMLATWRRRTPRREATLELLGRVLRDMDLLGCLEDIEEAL
Chain of RIPK1_DD (human) (Q13546 583-669): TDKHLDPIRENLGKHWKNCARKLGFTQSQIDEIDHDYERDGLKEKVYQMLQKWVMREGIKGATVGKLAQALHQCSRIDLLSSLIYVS
Chain of CRADD_CARD-DD (P78560 whole entry, the tested form may be a part): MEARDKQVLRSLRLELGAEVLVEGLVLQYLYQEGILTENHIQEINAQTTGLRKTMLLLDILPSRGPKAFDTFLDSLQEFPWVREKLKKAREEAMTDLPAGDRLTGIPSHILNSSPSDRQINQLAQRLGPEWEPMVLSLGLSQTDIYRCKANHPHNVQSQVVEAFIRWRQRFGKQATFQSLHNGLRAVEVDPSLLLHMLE
Chain of CASP2_CARD (human) (P42575 32-121): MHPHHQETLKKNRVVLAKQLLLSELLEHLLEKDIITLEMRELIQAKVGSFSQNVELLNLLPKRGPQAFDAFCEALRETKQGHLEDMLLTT
Chain of FADD_DED-DD (Q13158 whole entry, the tested form may be a part): as the sequence (Q13158 whole entry) above
Chain of DAPK1_DD (human) (P53355 1312-1396): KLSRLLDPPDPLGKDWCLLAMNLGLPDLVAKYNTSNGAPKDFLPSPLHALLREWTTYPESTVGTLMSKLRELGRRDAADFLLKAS
Chain of IRAK3_DD (human) (Q9Y616 whole entry): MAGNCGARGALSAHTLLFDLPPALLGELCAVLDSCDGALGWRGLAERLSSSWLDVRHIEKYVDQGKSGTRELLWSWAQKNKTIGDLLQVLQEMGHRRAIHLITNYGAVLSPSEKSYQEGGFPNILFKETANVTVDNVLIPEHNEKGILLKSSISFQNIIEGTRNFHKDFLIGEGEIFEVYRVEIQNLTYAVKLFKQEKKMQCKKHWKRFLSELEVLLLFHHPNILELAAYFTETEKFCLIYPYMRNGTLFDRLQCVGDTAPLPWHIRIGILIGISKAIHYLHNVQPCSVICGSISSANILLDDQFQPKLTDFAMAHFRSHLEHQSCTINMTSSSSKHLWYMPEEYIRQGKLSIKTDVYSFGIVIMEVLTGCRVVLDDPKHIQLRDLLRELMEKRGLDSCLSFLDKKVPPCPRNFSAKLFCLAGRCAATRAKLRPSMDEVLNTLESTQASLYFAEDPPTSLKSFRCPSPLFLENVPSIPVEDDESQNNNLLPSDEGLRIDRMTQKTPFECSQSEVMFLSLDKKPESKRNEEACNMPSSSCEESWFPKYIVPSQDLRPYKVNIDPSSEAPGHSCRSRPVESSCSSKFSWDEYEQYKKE
Chain of CASP1_CARD (human) (P29466 1-91): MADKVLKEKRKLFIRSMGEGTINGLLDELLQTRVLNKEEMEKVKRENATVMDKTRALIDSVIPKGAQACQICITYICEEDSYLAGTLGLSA
Chain of CASP1_CARD (P29466 1-91): as above
Chain of PYDC2_PYD (human) (Q56P42 whole entry): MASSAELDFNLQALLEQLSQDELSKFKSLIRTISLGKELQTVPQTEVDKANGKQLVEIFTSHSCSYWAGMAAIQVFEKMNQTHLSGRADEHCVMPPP
Chain of TRADD_DD (human) (Q15628 179-289): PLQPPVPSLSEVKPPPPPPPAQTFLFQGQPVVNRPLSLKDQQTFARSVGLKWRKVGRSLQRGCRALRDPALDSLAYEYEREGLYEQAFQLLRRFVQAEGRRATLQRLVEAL
Chain of ASC_PYD-CARD (human) (Q9ULZ3 whole entry): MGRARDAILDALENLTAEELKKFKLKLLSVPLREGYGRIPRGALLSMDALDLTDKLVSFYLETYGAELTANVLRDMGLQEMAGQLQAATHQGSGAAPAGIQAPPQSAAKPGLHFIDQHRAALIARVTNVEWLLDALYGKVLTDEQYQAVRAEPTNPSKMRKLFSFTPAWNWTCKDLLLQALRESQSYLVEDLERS

ALPHA signal (RLU) (ASC_PYD-CARD (human)): 4880 RLU
Substance: CASP1_CARD (from UniProt P29466 1-91) (domain or fragment)

ALPHA signal (RLU) (IRAK3_DD (human)): 968 RLU
Substance: CASP8_DED1 (from UniProt Q14790 2-80) (domain or fragment)

ALPHA signal (RLU) (DAPK1_DD (human)): 970 RLU
Substance: PYDC2_PYD (from UniProt Q56P42 1-97) (domain or fragment)

ALPHA signal (RLU) (FADD_DED-DD (human)): 30600 RLU
Substance: RIPK1_DD (from UniProt Q13546 583-669) (domain or fragment)

ALPHA signal (RLU) (FADD_DED-DD (human)): 9380 RLU
Substance: CASP8_DED1-DED2 (from UniProt Q14790 1-177) (domain or fragment)

ALPHA signal (RLU) (CASP10_DED1-DED2 (human)): 20700 RLU
ALPHA signal (RLU) (CFLAR_DED1-DED2 (human)): 20100 RLU
ALPHA signal (RLU) (TRADD_DD (human)): 39600 RLU
ALPHA signal (RLU) (CASP8_DED1-DED2 (human)): 11000 RLU
ALPHA signal (RLU) (TNFRSF1A_DD (human)): 964 RLU
ALPHA signal (RLU) (RIPK1_DD (human)): 20000 RLU
Substance: FADD_DED-DD (from UniProt Q13158 1-208) (domain or fragment)

ALPHA signal (RLU) (FADD_DED-DD (human)): 5570 RLU
Substance: TNFRSF1A_DD (from UniProt P19438 356-441) (domain or fragment)

ALPHA signal (RLU) (CASP8_DED1 (human)): 1350 RLU
Substance: IRAK3_DD (from UniProt Q9Y616 1-596) (domain or fragment)

ALPHA signal (RLU) (CASP2_CARD (human)): 2420 RLU
Substance: CRADD_CARD-DD (from UniProt P78560 1-199) (domain or fragment)

ALPHA signal (RLU) (FADD_DED-DD (human)): 10200 RLU
Substance: CASP10_DED1-DED2 (from UniProt Q92851 19-187) (domain or fragment)

ALPHA signal (RLU) (PYDC2_PYD (human)): 3540 RLU
Substance: DAPK1_DD (from UniProt P53355 1312-1396) (domain or fragment)

ALPHA signal (RLU) (FADD_DED-DD (human)): 31700 RLU
Substance: TRADD_DD (from UniProt Q15628 179-289) (domain or fragment)

ALPHA signal (RLU) (CASP1_CARD (human)): 1730 RLU
ALPHA signal (RLU) (NLRC4_CARD (human)): 1690 RLU
Substance: ASC_PYD-CARD (from UniProt Q9ULZ3 1-195) (domain or fragment)
